# Assay results: patent US12723255B2, “Herbicide tolerance genes and methods of use thereof” (priority 2014, dated 2026)
# System: transgenic soybean plants
# Assay: R0 soybean 2,4-D spray test of 2,4-D optimized variants
# Assay type: in vivo
# Text: An additional five engineered proteins optimized for activity for 2,4-D were then selected for analysis in transgenic soybean. DNA constructs were produced for expressing MON-HT13 (SEQ ID NO:47), MON-HT14 (SEQ ID NO:48), MON-HT15 (SEQ ID NO:49), MON-HT17 (SEQ ID NO:51), and MON-HT18 (SEQ ID NO:52) with codon usage optimized for dicot expression. The operably linked expression elements (promoter, leader, intron, CTP, and 3′UTR) were identical in all of the constructs. Leaf samples were taken from R0 plantlets and single copy plants were identified using a PCR-based assay. When the single-copy R0 plants had approximately two to three trifoliate leaves, they were treated with either 1.5 lb ae/acre (2×) or 3.0 lb ae/acre (4×) of 2,4-D. Seven days after herbicide application, the plants were scored for herbicide injury based on the percent area of the plant showing injury, as indicated above.
molecule,measurement,setting,value
"MON-HT1: engineered oxygenase protein, amino acid sequence SEQ ID NO:14 (protein) MHAALTPLTNKYRFIDVQPLTGVLGAEITGVDLREPLDDSTWNEILDAFHTYQVIYFPGQAITNEQHIAFSRRFGPVDPVPILKSIEGYPEVQMIRREANESSRFIGDDWHTDSTFLDAPPAAVVMRAIEVPEYGGDTGFLSMYSAWETLSPTMQATIEGLNVVHSATKVFGSLYQATNWRFSNTSVKVMDVDAGDRETVHPLVVTHPVTGRRALYCNQVYCQKIQGMTDAESKSLLQFLYEHATKFDFTCRVRWKKDQVLVWDNLCTMHRAVPDYAGKFRYLTRTTVAGDKPSR",Events with <20% injury,"2,4-D rate 2X (1.5 lb ae/acre), single copy R0 soy, seven days after application",12
same,"tolerance to 2,4-D treatment","2× application rate, soy",excellent tolerance
